# Experimental data taken from US9228015B2, “Nogo receptor antagonists and methods of increasing neurite outgrowth” (Biogen Idec MA Inc., priority 2006, dated 2016).
# B1: sNogoR310-Fc: fusion protein comprising amino acids 26-310 of rat Nogo receptor-1 and a rat Fc fragment (protein)
# chain: PCPGACVCYNEPKVTTSRPQQGLQAVPAGIPASSQRIFLHGNRISYVPAASFQSCRNLTILWLHSNALAGIDAAAFTGLTLLEQLDLSDNAQLRVVDPTTFRGLGHLHTLHLDRCGLQELGPGLFRGLAALQYLYLQDNNLQALPDNTFRDLGNLTHLFLHGNRIPSVPEHAFRGLHSLDRLLLHQNHVARVHPHAFRDLGRLMTLYLFANNLSMLPAEVLVPLRSLQYLRLNDNPWVCDCRARPLWAWLQKFRGSSSGVPSNLPQRLAGRDLKRLATSDLEGCA
# modifications: left off: a dimerising Fc or GST
# notes: fusion protein comprising amino acids 26-310 of rat Nogo receptor-1 and a rat Fc fragment
# Experiments:
# [1] = test system: DRG neurons, myelin-mediated inhibition of neurite outgrowth; assay: Neurite outgrowth assay, P3-4 rat DRG neurons, myelin mixed with test protein (Example 10); assay type: cell-based; conditions: mixed with CNS myelin, FIGS. 9-11
# Protocol: Lab-Tek® culture slides (4 wells) were coated with 0.1 mg/ml poly-D-lysine (Sigma®). CNS myelin alone or mixed with sNogoR310, sNogoR310-Fc fusion protein, mAb 5B10 or control PBS were separately spotted as 3 μl drops. Fluorescent microspheres (Polysciences) were added to the myelin/PBS to allow later identification of the drops (Grandpre et al., Nature 403:439-444 (2000)). Lab-Tek® slides were then rinsed and coated with 10 μg/ml laminin (Gibco™).
# Dorsal root ganglions (DRG's) from P3-4 Sprague Dawley rat pups were dissociated with 1 mg/ml collagenase type 1 (Worthington), triturated with fire-polished Pasteur pipettes pre-plated to enrich in neuronal cells and finally plated at 23,000 cells/well on the pre-coated Labtek culture slides. The culture medium was F12 containing 5% heat inactivated donor horse serum, 5% heat inactivated fetal bovine serum and 50 ng/ml mNGF and incubated at 37° C. and 5% CO2 for 6 hours.
# Slides were fixed for 20 minutes with 4% paraformaldehyde containing 20% sucrose and stained for the neuronal marker anti beta-III-tubulin (Covance TUJ1) diluted 1:500. As secondary antibody anti-mouse Alexa Fluor® 594 (Molecular Probes) was diluted 1:300 and slides were coverslipped with Gel/Mount™ (Biømeda™). 5× digital images were acquired with OpenLab™ software and analyzed by using the MetaMorph® software for quantification of neurite outgrowth.
# [2] = test system: rats with dorsal hemisection of the spinal cord; assay: Rat spinal cord transection assay (Example 12); assay type: in vivo; conditions: intrathecal pump, up to 28 days, FIG. 12
# Protocol: Alzet® osmotic pumps were loaded with test solution (sNogoR310-Fc in PBS) made up freshly on the day of use. The loading concentration was calculated to be 5 and 50 μM. Pumps were primed for >40 hours at 37° C. prior to implantation into animals. Female Long Evans rats were given pre-operative analgesia and tranquilizer and anesthetized using isoflurane (3% in O2).
# Rats were placed in a stereotaxic frame and the motor cortex exposed for infusion of the tract tracing agent BDA (10,000 MW) bilaterally. Rats then underwent dorsal hemisection of the spinal cord at TS-T6 followed by implantation of the intrathecal catheter and pump system to deliver test compound (n=1 per group).
# Rats were allowed to recover and survive up to 28 days after surgery. Behavioral scoring using the BBB system was recorded up to 28 days after induction of injury, just prior to termination of the in-life phase of the study. […]
# The Basso-Beattie-Bresnahan (BBB) locomotor rating scale (Basso et al., Neurotrauma 13:343-359 (1996)), the inclined plane test and the inclined grid walking test (Li and Strittmatter, J Neurosci. 23:4219-27 (2003)) were monitored in rats and mice after injury. For the inclined plane test, we measured the maximal angle to which a 50 cm×60 cm board could be angled for 5 sec without the mouse sliding off. […]
# [3] = test system: Nogo-66, MAG and myelin action; assay: Blockade of Nogo-66, MAG and myelin action in vitro
# [4] = test system: rats with mid-thoracic dorsal hemisection injury; assay: Intrathecal sNogoR310-Fc in rats with mid-thoracic dorsal hemisection: axon tracing and histology; assay type: in vivo, rat
# From the text: We isolated spinal cord 4 mm rostral to and 4 mm caudal to the lesion site (8 mm long in total) from transgenic mice and embedded it in a glutaraldehyde-polymerized albumin matrix, and cut parasagittally on a vibratome (30 μm thick). We collected transverse sections (50 μm) from the spinal cord 5-7 mm rostral to and 5-7 mm caudal to the injury site. For sNogoR310-Fc injection experiments in rats, the spinal cord extending from 10 mm rostral to 10 mm caudal from the lesion site was cut parasaggitally (50 μm) on a vibrating microtome. Transverse sections were collected from the spinal cord 11-16 mm rostral to and 11-16 mm caudal to the injury site. We incubated the sections with avidin-biotin-peroxidase complex and visualized the BDA tracer by nickel-enhanced diaminobenzidine HRP reaction (Grandpre, Nature 417:547-551 (2002)). We processed some sections for serotonin immunohistochemistry (anti-5-HT antibody) by indirect immunofluorescence. To visualize the lesion area, we double-stained some sections with antibodies directed against GFAP (Sigma®, St. Louis, Mo.). We mounted, dehydrated and covered the sections with mounting medium.
# We fused the ligand binding domain (27-310) of rat Nogo receptor-1 to the rat IgG1 Fc domain to promote stability and purification. We purified protein from stably transfected CHO cells. This protein blocks Nogo-66, MAG and myelin action in vitro, as shown previously for mouse sNogoR310-Myc His (Fournier et al., J Neurosci. 22:8876-8883 (2002); Liu et al., Science 297:1190-1193 (2002)). We delived sNogoR310-Fc protein intrathecally to rats with a mid-thoracic dorsal hemisection injury through an osmotic minipump. During a four-week survival period after injury, 1.2 mg sNogoR310-Fc protein was locally administered in each rat. In rats receiving the vehicle treatment (1.2 mg rat IgG), sections rostral to hemisection display the tightly bundled prominent dorsal CST and very few ectopic BDA-labeled CST fibers above the lesion site. […] Numerous ectopic fibers sprouting from the BDA-labeled CST are observed from transverse and parasagittal sections. In some cases, projections cross from the dCST area near the midline to the circumference of the cord, becoming intermingled with the dorsolateral CST. The sprouting axons extend though gray matter to a greater extent than white matter.
# (§1) We deeply anaesthetized female Sprague-Dawley rats (190-250 g) and conducted laminectomies at spinal levels of T6-7, exposing the spinal cord. We cut the dorsal half of the spinal cord with a 30-gauge needle and a pair of microscissors to sever the dorsal parts of CSGT tracts, and assured the depth of the lesion (1.8 mm) by passing the sharp part of a number 11 blade across the dorsal half of the cord (Grandpre et al., Nature 417:547-551 (2002)). An osmotic minipump (Alzet® 2ML4, 2 ml volume, 2.5 μl/h, 28 day delivery), which was filled with 1.2 mg rat IgG in PBS or 1.2 mg sNogoR310-Fc fusion protein in PBS, was sutured to muscles under the skin on the back of the animals. A catheter connected to the outlet of the minipump was inserted into the intrathecal space of the spinal cord at the T7-8 level through a small hole in the dura.
# Fourteen days after hemisection, a burr hole was made on each side of the skull overlying the sensorimotor cortex of the lower limbs to trace CST fibers. The anterograde neuronal tracer BDA (10% in PBS, 3.5 μl per cortex) was applied at seven injection sites at a depth of 1.5 mm from dura on each side (Grandpre et al., Nature 417:547-551 (2002)). For rubrospinal tract tracing in rats, the tracer BDA (1 μl; MW 10,000; 10% in PBS) was injected into red nucleus on the left side (5.8 mm posterior to bregma, 0.7 mm lateral, 7.0 mm ventral to the skull surface). Two weeks after BDA injection, these animals were perfused with PBS, followed by 4% paraformaldehyde, and tissue was collected for histology.
# [5] = test system: rats with mid-thoracic dorsal hemisection injury; assay: Intrathecal sNogoR310-Fc in rats with dorsal hemisection: behavioral tests; assay type: in vivo, rat
# From the text: The Basso-Beattie-Bresnahan (BBB) locomotor rating scale (Basso et al., Neurotrauma 13:343-359 (1996)), the inclined plane test and the inclined grid walking test (Li and Strittmatter, J Neurosci. 23:4219-27 (2003)) were monitored in rats and mice after injury. For the inclined plane test, we measured the maximal angle to which a 50 cm×60 cm board could be angled for 5 sec without the mouse sliding off. For inclined grid walking, the mice were trained to climb a wire grid (35 cm long with 2.54 cm squares) at a slope of 45 degrees. The number of instances in which the hindpaw dropped below the grid plane was scored for each excursion from bottom to top. For the rat behavioral testing, BBB locomotor scale, grid walking and footprint analysis were performed. For grid walking, the rats were trained to walk on a wire grid (70 cm long with 2.54 an squares), and the number of instances in which the hindpaw dropped below the grid plane was counted. For footprint analysis, the walking patterns of rat hindpaws were recorded with ink during a continuous locomotion across a 90 cm runway, and stride length on each side and stride width were calculated (Metz et al., Brain Res. 883:165-177 (2000)). All of these behavioral tests were performed by at least two individuals. Throughout the surgery, behavioral testing and histologic analysis, researchers were blind to the identity of the compound in the minipump.
# as §1, with “A catheter connected to the outlet of the minipump was inserted into the intrathecal space of the spinal cord at the T7-8 level through a small hole in the dura.” left out
molecule,measurement,setting,value
B1,protection of DRG neurons from myelin-mediated inhibition of neurite outgrowth,[1],protected
same,functional recovery (BBB score),[2],promoted functional recovery
same,"blocks Nogo-66, MAG and myelin action in vitro",[3],blocks
same,BDA-labeled axons from sagittal sections,"[4]; 1-2 mm caudal to lesion, each rat",approximately 20
same,number of sprouts,[4]; 1-10 mm caudal,~50 sprouts/rat
same,traced axons from sagittal sections,"[4]; 7-8 mm distal to lesion, each rat",~15
same,serotonin fibers relative to control group,[4]; 11-15 mm below the lesion,twice as numerous
same,density of serotonergic fibers vs vehicle,[4]; 11-15 mm rostral to lesion,similar
same,total collateral length of each sprout relative to NEP 1-40-treated animals,[4]; distal spinal cord,twice as great
same,ectopic sprouting fibers adjacent to the dCST,"[4]; rostral to lesion, 1.2 mg intrathecal over four weeks",greater increase
same,average number of BDA-labeled CST fibers relative to vehicle-treated rats,[4]; transverse sections 11-15 mm caudal to hemisection,approximately 20 fold
same,BDA-labeled RST fibers,[4]; transverse sections 11-15 mm distal to SCI,many BDA-labeled RST fibers
same,grid walking errors,"[5]; 2-4 weeks post-injury, on average",4-7 /session
same,locomotor BBB score,[5]; 2-4 weeks post-trauma,continues to improve
same,animals with consistent forelimb-hindlimb coordination and parallel paw position,"[5]; 4 weeks after injury, 9 treated animals",9
